Reference: article PMC13397619

B1: NLV3 TCR beta chain (CDR3β only) (parent)
chain: ASSPTGGSPSPLH

Variants of: B1
Assay: T-Switch: Jurkat TCRβ−/− cells expressing a CDR3 saturation-mutagenesis library, stained with two peptide-HLA-A*02:01 tetramers (original and novel peptide) plus anti-CD3, FACS-sorted into four gates, gDNA sequenced
Conditions: with both tetramers (double-negative gate, binds neither): HLA-A*02:01 with … and with …, tetramers 1 µg/mL, 30 min on ice, SP, DP and SW gates expanded about 10 days between rounds ('two to three rounds of selection' in the Methods), gate DN: OPPOSITE: higher = more of the variant in the gate that binds neither peptide = LESS binding (or no expression; inferred). Fold enrichment of the CDR3 variant in one FACS gate of a two-tetram, unresolved parent, parent is a CDR3 fragment, scale: fold enrichment, numbering: sequential-on-construct, sequence starts at 1
Variant […] (CDR3 as printed); S10Q derived by comparing it with the table's wild-type CDR3 ASSPTGGSPSPLH has an enrichment of 0.571. […] (CDR3 as printed); P9T derived by comparing it with the table's wild-type CDR3 ASSPTGGSPSPLH showed an enrichment of 1.11. […] (CDR3 as printed); S8M derived by comparing it with the table's wild-type CDR3 ASSPTGGSPSPLH gave an enrichment of 1.29. […] (CDR3 as printed); P11Y derived by comparing it with the table's wild-type CDR3 ASSPTGGSPSPLH was tested, and the enrichment was 0.787. With […] (CDR3 as printed); S8L derived by comparing it with the table's wild-type CDR3 ASSPTGGSPSPLH the enrichment was 1.58. With […] (CDR3 as printed); P11M derived by comparing it with the table's wild-type CDR3 ASSPTGGSPSPLH the enrichment was 0.318. Work on […] (CDR3 as printed); P9M derived by comparing it with the table's wild-type CDR3 ASSPTGGSPSPLH yielded an enrichment of 1.18. In the case of […] (CDR3 as printed); S8F derived by comparing it with the table's wild-type CDR3 ASSPTGGSPSPLH, the enrichment is reported as 0.97. With […] (CDR3 as printed); T5M derived by comparing it with the table's wild-type CDR3 ASSPTGGSPSPLH the enrichment was 0.479. […] (CDR3 as printed); P9V derived by comparing it with the table's wild-type CDR3 ASSPTGGSPSPLH showed an enrichment of 0.664. Variant […] (CDR3 as printed); T5G derived by comparing it with the table's wild-type CDR3 ASSPTGGSPSPLH has an enrichment of 0.828. […] (CDR3 as printed); S3E derived by comparing it with the table's wild-type CDR3 ASSPTGGSPSPLH was tested, and the enrichment was 0.814. Work on […] (CDR3 as printed); P11K derived by comparing it with the table's wild-type CDR3 ASSPTGGSPSPLH yielded an enrichment of 0.634. In the case of […] (CDR3 as printed); P11I derived by comparing it with the table's wild-type CDR3 ASSPTGGSPSPLH, the enrichment is reported as 1.19. […] (CDR3 as printed); S3T derived by comparing it with the table's wild-type CDR3 ASSPTGGSPSPLH gave an enrichment of 0.779. […] (CDR3 as printed); T5P derived by comparing it with the table's wild-type CDR3 ASSPTGGSPSPLH gave an enrichment of 1.04. With […] (CDR3 as printed); P9Q derived by comparing it with the table's wild-type CDR3 ASSPTGGSPSPLH the enrichment was 0.777. […] (CDR3 as printed); T5V derived by comparing it with the table's wild-type CDR3 ASSPTGGSPSPLH showed an enrichment of 0.249. […] (CDR3 as printed); S10V derived by comparing it with the table's wild-type CDR3 ASSPTGGSPSPLH showed an enrichment of 0.96. In the case of […] (CDR3 as printed); S2C derived by comparing it with the table's wild-type CDR3 ASSPTGGSPSPLH, the enrichment is reported as 0.867. […] (CDR3 as printed); S3N derived by comparing it with the table's wild-type CDR3 ASSPTGGSPSPLH was tested, and the enrichment was 0.483. Work on […] (CDR3 as printed); S10A derived by comparing it with the table's wild-type CDR3 ASSPTGGSPSPLH yielded an enrichment of 0.624. Variant […] (CDR3 as printed); P11E derived by comparing it with the table's wild-type CDR3 ASSPTGGSPSPLH has an enrichment of 0.639. […] (CDR3 as printed); S10M derived by comparing it with the table's wild-type CDR3 ASSPTGGSPSPLH was tested, and the enrichment was 0.53. With […] (CDR3 as printed); S2R derived by comparing it with the table's wild-type CDR3 ASSPTGGSPSPLH the enrichment was 0.703. Work on […] (CDR3 as printed); S3G derived by comparing it with the table's wild-type CDR3 ASSPTGGSPSPLH yielded an enrichment of 0.543.

Same assay, conditions: with both tetramers (double-positive gate): HLA-A*02:01 with … and with …, tetramers 1 µg/mL, 30 min on ice, SP, DP and SW gates expanded about 10 days between rounds ('two to three rounds of selection' in the Methods), gate DP: higher = more of the variant in the gate that binds both peptides. Fold enrichment of the CDR3 variant in one FACS gate of a two-tetramer stain. SP/DP/SW gates were expanded and re-sorted bef, unresolved parent, parent is a CDR3 fragment, scale: fold enrichment, numbering: sequential-on-construct, sequence starts at 1
[…] (CDR3 as printed); S10Q derived by comparing it with the table's wild-type CDR3 ASSPTGGSPSPLH showed an enrichment of 0. Work on […] (CDR3 as printed); P9T derived by comparing it with the table's wild-type CDR3 ASSPTGGSPSPLH yielded an enrichment of 0. […] (CDR3 as printed); S8M derived by comparing it with the table's wild-type CDR3 ASSPTGGSPSPLH was tested, and the enrichment was 0. Work on […] (CDR3 as printed); P11Y derived by comparing it with the table's wild-type CDR3 ASSPTGGSPSPLH yielded an enrichment of 0. Work on […] (CDR3 as printed); S8L derived by comparing it with the table's wild-type CDR3 ASSPTGGSPSPLH yielded an enrichment of 0. […] (CDR3 as printed); P11M derived by comparing it with the table's wild-type CDR3 ASSPTGGSPSPLH showed an enrichment of 0. For […] (CDR3 as printed); P9M derived by comparing it with the table's wild-type CDR3 ASSPTGGSPSPLH, the enrichment was 0. […] (CDR3 as printed); S8F derived by comparing it with the table's wild-type CDR3 ASSPTGGSPSPLH gave an enrichment of 0. […] (CDR3 as printed); T5M derived by comparing it with the table's wild-type CDR3 ASSPTGGSPSPLH was tested, and the enrichment was 0. Variant […] (CDR3 as printed); P9V derived by comparing it with the table's wild-type CDR3 ASSPTGGSPSPLH has an enrichment of 0. […] (CDR3 as printed); T5G derived by comparing it with the table's wild-type CDR3 ASSPTGGSPSPLH showed an enrichment of 0. Work on […] (CDR3 as printed); S3E derived by comparing it with the table's wild-type CDR3 ASSPTGGSPSPLH yielded an enrichment of 0. […] (CDR3 as printed); P11K derived by comparing it with the table's wild-type CDR3 ASSPTGGSPSPLH showed an enrichment of 0. […] (CDR3 as printed); P11I derived by comparing it with the table's wild-type CDR3 ASSPTGGSPSPLH was tested, and the enrichment was 0. Variant […] (CDR3 as printed); S3T derived by comparing it with the table's wild-type CDR3 ASSPTGGSPSPLH has an enrichment of 0. […] (CDR3 as printed); T5P derived by comparing it with the table's wild-type CDR3 ASSPTGGSPSPLH showed an enrichment of 0. […] (CDR3 as printed); P9Q derived by comparing it with the table's wild-type CDR3 ASSPTGGSPSPLH gave an enrichment of 0. […] (CDR3 as printed); T5V derived by comparing it with the table's wild-type CDR3 ASSPTGGSPSPLH showed an enrichment of 0. Work on […] (CDR3 as printed); S10V derived by comparing it with the table's wild-type CDR3 ASSPTGGSPSPLH yielded an enrichment of 0. Variant […] (CDR3 as printed); S2C derived by comparing it with the table's wild-type CDR3 ASSPTGGSPSPLH has an enrichment of 0. In the case of […] (CDR3 as printed); S3N derived by comparing it with the table's wild-type CDR3 ASSPTGGSPSPLH, the enrichment is reported as 0. Work on […] (CDR3 as printed); S10A derived by comparing it with the table's wild-type CDR3 ASSPTGGSPSPLH yielded an enrichment of 0. Variant […] (CDR3 as printed); P11E derived by comparing it with the table's wild-type CDR3 ASSPTGGSPSPLH has an enrichment of 0. For […] (CDR3 as printed); S10M derived by comparing it with the table's wild-type CDR3 ASSPTGGSPSPLH, the enrichment was 0. Work on […] (CDR3 as printed); S2R derived by comparing it with the table's wild-type CDR3 ASSPTGGSPSPLH yielded an enrichment of 0. With […] (CDR3 as printed); S3G derived by comparing it with the table's wild-type CDR3 ASSPTGGSPSPLH the enrichment was 0.
